Consider 3 molecules from publication PMC9710867, “Molecular architecture of the Chikungunya virus replication complex” (Science Advances, 2022).

The chains are these.
B1: CHIKV nsP1 mutant (H37A; amino acids 1 to 535) with internal StrepII-3XFLAG (enzyme)
chain: MDPVYVDIDADSAFLKALQRAYPMFEVEPRQVTPNDAANARAFSHLAIKLIEQEIDPDSTILDIGSAPARRMMSDRKYHCVCPMRSAEDPERLANYARKLASAAGKVLDRNISGKIGDLQAVMAVPDTETPTFCLHTDVSCRQRADVAIYQDVYAVHAPTSLYHQAIKGVRLAYWVGFDTTPFMYNAMAGAYPSYSTNWADEQVLKAKNIGLCSTDLTEGRRGKLSIMRGKKLEPCDRVLFSVGSTLYPESRKLLKSWHLPSVFHLKGKLSFTCRCDTVVSCEGYVVKRITMSPGLYGKTTGYAVTHHADGFLMCKTTDTVDGERVSFSVCTYVPATICDQMTGILATEVTPEDAQKLLVGLNQRIVVNGRTQRNTNTMKNYMIPVVAQAFSKWAKECRKDMEDEKLLGVRERTLTCCCLWAFKKQKTHTVYKRPDTQSIQKVQAEFDSFVVPSLWSSGLSIPLRTRIKWLLSKVPKTDLTPYSGDAQEARDAEKEAEEEREAELTLEALPPLQAAQEDVQVEIDVEQLEDRAGA
notes: nonstructural protein 1 (nsP1) of chikungunya virus, amino acids 1 to 535 of the nonstructural polyprotein; also called nsP1 ring; nsP1 dodecameric ring; not shown: StrepII, internal (after residue 516), kept; copies: 12
B2: ONNV nsP4, full length (amino acids 1904 to 2514) (enzyme)
chain: IFSSDTGQGHLQQKSVRQTTLPVNIVEEVHEEKCYPPKLDEIKEQLLLKRLQESASTANRSRYQSRKVENMKATIIHRLKEGCRLYLASDTPRVPSYRITYPAPVYSPSISIKLNNPETAVAVCNEFLARNYPTVASYQVTDEYDAYLDMVDGSESCLDRATFNPSKLRSYPKQHSYHAPTIRSAVPSPFQNTLQNVLAAATKRNCNVTQMRELPTMDSAVFNVECFKKYACNQEYWREFASSPIRVTTENLTMYVTKLKGPKAAALFAKTHNLLPLQEVPMDRFTMDMKRDVKVTPGTKHTEERPKVQVIQAAEPLATAYLCGIHRELVRRLNAVLLPNVHTLFDMSAEDFDAIISTHFKPGDAVLETDIASFDKSQDDSLALTAMMLLEDLGVDQPILDLIEAAFGEISSCHLPTGTRFKFGAMMKSGMFLTLFVNTLLNITIASRVLEERLTTSACAAFIGDDNIIHGVVSDALMAARCATWMNMEVKIIDAVVSEKAPYFCGGFILHDTVTGTSCRVADPLKRLFKLGKPLAAGDEQDEDRRRALADEVTRWQRTGLITELEKAVYSRYEVQGITAVITSMATFASSKENFKKLRGPVVTLYGGPK
notes: Contact residues in the text (D219, E392, D393, D402, E405; NTD 1 to 105) count on nsP4 itself; also called o'nyong-nyong virus nsP4; nsP4 RdRp

Holding throughout (assay): cryo-EM structure; single-particle cryo-EM of the reconstituted nsP1 + 2 + 4 RC core mixed with T2 RNA and NTP in 1x buffer Z at 1:10:100 molar ratio; C1, 2.8 Å
Data set [1] deals with the molecule itself.
Data set [2] addresses B1. The settings on record: both partners purified.
In data set [3] the target is B2. The settings on record: both partners purified.

As for B1, the “stoichiometry N” value in data set [1] is 12.

With B2, the “stoichiometry N” value in data set [2] was found to be 12 nsP1 per nsP4.

B3: CHIKV nsP2, full length (amino acids 536 to 1333) (enzyme)
chain: GIIETPRGAIKVTAQPTDHVVGEYLVLSPQTVLRSQKLSLIHALAEQVKTCTHSGRAGRYAVEAYDGRVLVPSGYAISPEDFQSLSESATMVYNEREFVNRKLHHIAMHGPALNTDEESYELVRAERTEHEYVYDVDQRRCCKKEEAAGLVLVGDLTNPPYHEFAYEGLKIRPACPYKIAVIGVFGVPGSGKSAIIKNLVTRQDLVTSGKKENCQEITTDVMRQRGLEISARTVDSLLLNGCNRPVDVLYVDEAFACHSGTLLALIALVRPRQKVVLCGDPKQCGFFNMMQMKVNYNHNICTQVYHKSISRRCTLPVTAIVSSLHYEGKMRTTNEYNKPIVVDTTGSTKPDPGDLVLTCFRGWVKQLQIDYRGHEVMTAAASQGLTRKGVYAVRQKVNENPLYASTSEHVNVLLTRTEGKLVWKTLSGDPWIKTLQNPPKGNFKATIKEWEVEHASIMAGICSHQMTFDTFQNKANVCWAKSLVPILETAGIKLNDRQWSQIIQAFKEDKAYSPEVALNEICTRMYGVDLDSGLFSKPLVSVYYADNHWDNRPGGKMFGFNPEAASILERKYPFTKGKWNINKQICVTTRRIEDFNPTTNIIPANRRLPHSLVAEHRPVKGERMEWLVNKINGHHVLLVSGCSLALPTKRVTWVAPLGVRGADYTYNLELGLPATLGRYDLVVINIHTPFRIHHYQQCVDHAMKLQMLGGDSLRLLKPGGSLLIRAYGYADRTSERVICVLGRKFRSSRALKPPCVTSNTEMFFLFSNFDNGRRNFTTHVMNNQLNAAFVGQATRAGC
notes: nonstructural protein 2 (nsP2) of chikungunya virus, full length, amino acids 536 to 1333 of the nonstructural polyprotein; Contact residues in the text (R56, R59, Y60, R101; nsP2h 1 to 465) count on nsP2 itself; The His6-SUMO tag is called cleavable; Only the helicase region is built in the cryo-EM model; also called nsP2 helicase-protease
As for B3, in data set [3], the “stoichiometry N” value was found to be 1 nsP2 per nsP4.
